Experimental data: patent US20080058263A1 (published 2008)

T1: VEGFR-3-Fc (UniProt P35916 25-328)
T1 construct: domain: first three Ig domains; conditioned supernatant of 293T cells; also called VEGFR-3-Fc fusion protein; not shown: Fc fragment of the pIg vector
T1 sequence (looked up): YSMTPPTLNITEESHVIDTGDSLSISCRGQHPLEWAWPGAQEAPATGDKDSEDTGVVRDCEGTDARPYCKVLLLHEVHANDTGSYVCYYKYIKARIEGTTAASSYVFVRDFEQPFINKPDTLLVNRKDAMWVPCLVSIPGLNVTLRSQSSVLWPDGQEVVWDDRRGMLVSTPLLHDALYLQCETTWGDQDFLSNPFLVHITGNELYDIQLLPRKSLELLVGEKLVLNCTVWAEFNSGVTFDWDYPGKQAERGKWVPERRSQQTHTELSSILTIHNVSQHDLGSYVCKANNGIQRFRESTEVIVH


Key:
Assay in all cases: receptor-Fc IP
VEGFR-2-Fc = target: T2, VEGFR-2-Fc (UniProt P35968 20-322)
T2 construct: domain: first 3 Ig domains; conditioned supernatant of 293T cells; also called VEGFR-2-Fc fusion protein; not shown: Fc fragment of the pIg vector
Outline: (§1)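 Binding of ligand from sample supernatant measured by pentahistidine-antibody immunoprecipitation. IP mix: PBS with 1.5% BSA, 0.06% Tween 20, 3 μg/ml heparin and 400 ng/ml fusion protein, added 1:2 to sample supernatant.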

VEGFR-1-Fc = target: T3, VEGFR-1-Fc (UniProt P17948 27-338)
T3 construct: domain: first three Ig domains; expressed in Drosophila S2 cells, purified on Protein A sepharose; also called VEGFR-1-Fc fusion protein; not shown: Fc fragment from the Signal-pIgPlus vector
Outline: as §1

VEGFR-3-Fc = target: T1, VEGFR-3-Fc
Outline: as §1

T3 sequence (P17948 27-338): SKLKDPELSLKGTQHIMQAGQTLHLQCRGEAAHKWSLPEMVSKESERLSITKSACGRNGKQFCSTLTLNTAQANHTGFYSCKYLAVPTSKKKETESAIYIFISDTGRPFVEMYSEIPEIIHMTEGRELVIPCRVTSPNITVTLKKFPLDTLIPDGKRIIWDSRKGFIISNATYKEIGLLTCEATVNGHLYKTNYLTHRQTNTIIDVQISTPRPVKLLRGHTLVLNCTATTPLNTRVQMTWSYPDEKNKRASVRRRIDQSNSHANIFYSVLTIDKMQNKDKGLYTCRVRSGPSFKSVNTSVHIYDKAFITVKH
T2 sequence (P35968 20-322): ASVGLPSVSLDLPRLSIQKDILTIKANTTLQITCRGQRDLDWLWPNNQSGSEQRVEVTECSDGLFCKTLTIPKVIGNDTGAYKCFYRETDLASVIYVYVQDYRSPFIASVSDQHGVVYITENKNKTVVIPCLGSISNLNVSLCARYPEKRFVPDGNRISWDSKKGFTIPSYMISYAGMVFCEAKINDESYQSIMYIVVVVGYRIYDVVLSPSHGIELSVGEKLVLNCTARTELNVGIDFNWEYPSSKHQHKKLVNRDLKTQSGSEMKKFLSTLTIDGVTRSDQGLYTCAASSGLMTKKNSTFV

Row | Binder | binding result (VEGFR-2-Fc) | binding result (VEGFR-1-Fc) | binding result (VEGFR-3-Fc)
1 | 52-11 (ligand) AHYNTEILKSIDNEWRKTQCMPIETLVDIFQEFGVATNTFFKPPCVSVYRCGGCCNSEGLQCVPTEESNITMQIMRITVPLSQGPKPVTISFLQHNKCECRPKKD | no binding | no binding | binds
2 | 32-16 (ligand) GQNHHEVVKSIDNEWRKTQCMPIETLVDIFQEFGVATNTFFKPPCVSVYRCGGCCNSEGLQCMNTSTSYLSKTLFEITVPLSQGPKPVTISFANHTSCRCMSKLD | no binding | no binding | binds
3 | 52-15 (ligand, clone entry) AHYNTEILKSIDNEWRKTQCMPIETLVDIFQEFGVATNTFFKPPCVSVYRCGGCCNSEGLQCVPTEESNITMQIMRITVPLSQGPKPVTISFANHTSCRCMSKLD | no binding | no binding | binds
4 | 63-8 (ligand) GQNHHEVVKFMDVYQRSYCHPREVCIDVGKEYPDEIEYIFKPPCVSVYRCGGCCNSEGLQCMNTSTSYLSKTLFEIKPHQGQHIGEMSFANHTSCRCMSKLD | no binding | no binding | no binding
5 | 13-6 (ligand) GQNHHEVVKFMDVYQRSYCHPIETLVDIFQEYPDEIEYIFKPPCVSVYRCGGCCNDEGLECMNTSTSYLSKTLFEIKPHQGQHIGEMSFANHTSCRCMSKLD | no binding | no binding | no binding
6 | 53-1 (ligand) AHYNTEILKSIDNEWRKTQCMPIETLVDIFQEYPDEIEYIFKPPCVSVYRCGGCCNDEGLECVPTEESNITMQIMRIKPHQGQHIGEMSFLQHNKCECRPKKD | binds | no binding | no binding
7 | 53-7 (ligand) AHYNTEILKSIDNEWRKTQCMPIETLVDIFQEYPDEIEYIFKPPCVSVYRCGGCCNSEGLQCVPTEESNITMQIMRIKPHQGQHIGEMSFANHTSCRCMSKLD | binds | no binding | no binding

Results, then the binder that gave them:

Row | binding result (VEGFR-2-Fc) | binding result (VEGFR-1-Fc) | binding result (VEGFR-3-Fc) | Binder
8 | no binding | no binding | binds | 52-9 (ligand) AHYNTEILKSIDNEWRKTQCMPIETLVDIFQEFGVATNTFFKPPCVSVYRCGGCCNDEGLECVPTEESNITMQIMRITVPLSQGPKPVTISFLQHNKCECRPKKD
9 | no binding | no binding | binds | 32-15 (ligand) GQNHHEVVKSIDNEWRKTQCMPIETLVDIFQEFGVATNTFFKPPCVSVYRCGGCCNSEGLQCVPTEESNITMQIMRITVPLSQGPKPVTISFANHTSCRCMSKLD
10 | no binding | binds | no binding | 62-1 (ligand) GQNHHEVVKFMDVYQRSYCHPREVCIDVGKEFGVATNTFFKPPCVSVYRCGGCCNDEGLECVPTEESNITMQIMRIKPHQGQHIGEMSFLQHNKCECRPKKD
11 | binds | binds | binds | 53-3 (ligand, clone entry) AHYNTEILKSIDNEWRKTQCMPIETLVDIFQEYPDEIEYIFKPPCVSVYRCGGCCNSEGLQCVPTEESNITMQIMRIKPHQGQHIGEMSFLQHNKCECRPKKDLV
